The record followed here is the nanobody polyreactivity screen of Harvey et al. (2022).

The nature of this data set: yeast display, Sf9 membrane polyspecificity reagent, FACS + sequencing; frameworks hold sequencing errors. In short, it runs like this: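 In a synthetic yeast display library (Saccharomyces cerevisiae BJ5465), nanobody expression was induced with galactose for 36–48 hours. FACS gates were set low and high (top ~1%) using anti-HA fluorescence for expression and streptavidin fluorescence for binding of the Sf9 membrane reagent. Each polyreactivity label is drawn from the gate of origin.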
Take “QVQLVESGGGLVQAGGSLRLSCAASGSTFPYNAMGWYRQAPGKERELVATIDRGSTTNYADSVKGRFTISRDNAKNTVYLQMNSLKPEDTAVYYCNAKFIWWYEKGGWNVSKYEYWGQGTQVTVSS”: the “polyreactivity (PSR sort gate)” value is listed as “low polyreactivity”.
In the case of “QVQLVESGGGLVQAGGSLRLSCAASGSTFPYNARGWYRQAPGKETELVAAISSSGGSTYYADSVKGRFTISRDNAKNTVYLQMNSLKPVDTEVYYCNAVLRYSIYPSSSFSYVGYYYWGQGTQVSVSS”, the “polyreactivity (PSR sort gate)” value is given as “high polyreactivity”.
For the sequence “QVQLVESGGGLVQAGGSLRLSCAASGSTFPYYAMGCYRQAPGKERELVAAISWSDANTYYADSVKGRFTISRDNAKNTVYLQMNSLKPEDTAVYYCAAEPYDRYVPYTGYGLNYWGQGTQVTVSS”, the “polyreactivity (PSR sort gate)” value is on record as “low polyreactivity”.
The same measure for “QVQLVESGGGLVQAGGSLRLSCAASGSTFPYYAMGWYRQAPGKERELVAAISSSGGSTYYADSVKGRFTISRDNAKNTVYLQMNSLKPEDTAVYYCATSSRYVDGYEMDYWGQGTQVSVSS”: “high polyreactivity”; for “QVQLVESGGGLVQAGGSLRLSCAASGSTFPYYTMGWYRQAPGKERELVAAIRYSGSSTYYADSVKGRFTISLDNAKNSVYLQMNSLKPEDTAVYSCAKTLWRRRGDRRYRVIEMDHWGQGTQVTVSS”: “low polyreactivity”; for “QVQLVESGGGLVQAGGSLRLSCAASGSTFPYYTMGWYRQAPGKERELVAAITWRGGRTYYADSVKGRFTISRDNAKYTVYLQMNSLKPEDTAVYYCNAYGIDTGDYWGQGTQVTVSS”: “high polyreactivity”.
The entry for “QVQLVESGGGLVQAGGSLRLSCAASGSTFQDYAMGWYRQAPGKERELVAAISKRGGRTYYADSVKGRFTISRDNAKNTVYLQMNSLKPEETAVYYCNTYPVPGGVTYSYTGFDYWGQGTQVTVSS” is “high polyreactivity”; for “QVQLVESGGGLVQAGGSLRLSCAASGSTFQFNAMGWYRQAPGKEREFVAAITSSAGRTYYADSVKGRFTISRDNAKNTVYLQMNSLKPEDTAVYYCAATFYRRYVDLGYWGQGTQVTVSS” it is “high polyreactivity”.
As to “QVQLVESGGGLVQAGGSLRLSCAASGSTFQGNAMGWYRQAPGKERELVAAISSDGSTDYADSVKGRFTISRDNAKNTVYLQMNSLKPEDTAVYYCNRVSPGPDADLEFDYWGQGTQVTVSS”, the “polyreactivity (PSR sort gate)” value is “low polyreactivity”.
As for “QVQLVESGGGLVQAGGSLRLSCAASGSTFQIYAMGWYRQPPGKDRELVAANTSSSSTNYADSVKGRFTISRENAKNTVYLQMNSLKPEDTAVYYCAAAVSWRSNWYDYWGQGTQVTVSS”, the “polyreactivity (PSR sort gate)” value was “low polyreactivity”.
The same measure for “QVQLVESGGGLVQAGGSLRLSCAASGSTFQPNAMGWYRQAPGKERELVAAITGGDNTNYADSVKGRFTISRDNAKNTVYLQMNSLKPEDTAVYYCAAGGLGSRWYVGYDYWGQGTQVTVSS”: “low polyreactivity”; for “QVQLVESGGGLVQAGGSLRLSCAASGSTFQPYAMGWYRQAPGKEREFVATISGSAGSTYYADSVKGRFKISRDNAKNTVYLQMNSLKPEDTAVYYCNADSGWFGYDYWGQGTQVTVSS”: “low polyreactivity”; for “QVQLVESGGGLVQAGGSLRLSCAASGSTFQQYAMGWYRQAPGKERELVAAISWRGGSTYYADSVKGRFTISRDNAKNTVYFQMNSLKPEDTAFYYCAARYQPGGFSRYDYYYWGQGTQVTVSS”: “high polyreactivity”.
For “QVQLVESGGGLVQAGGSLRLSCAASGSTFQRYAMGWYRQAPGKERELVAAISDGGSTKYADYVKGRFTISRDNAKNTVYLQMNRLKPEDTAVYYCAANYLSRYDYWGQGTQVTVSS”, the “polyreactivity (PSR sort gate)” value is “low polyreactivity”.
Regarding “QVQLVESGGGLVQAGGSLRLSCAASGSTFQRYAMGWYRQAPGKERELVAAISSRGGSTYYADSVKGRFTISRDNAKNTVYLQMNSLKPEDTAVYYCAALGHLRYDYWGQGTQVTVSS”, the “polyreactivity (PSR sort gate)” value is recorded as “high polyreactivity”.
Turning to “QVQLVESGGGLVQAGGSLRLSCAASGSTFQSYAMGWSRPAPGKERELVAAISFSGGSTYYADSVKGRFTISRDHAKNTVYLQMNSLKPEDTAVYYCAADVAYVEYAYWGQGTQVTVSS”, the “polyreactivity (PSR sort gate)” value is listed as “low polyreactivity”.
As for “QVQLVESGGGLVQAGGSLRLSCAASGSTFQTYAMGWYRQAPGKERELVASISYGVTTYYADSVKGRFTISRDNAKNTVYLQMNSLKPEDTAVYYCAREGYKWVYLSYGYWGQGTQVTVSS”, the “polyreactivity (PSR sort gate)” value is given as “low polyreactivity”.
“QVQLVESGGGLVQAGGSLRLSCAASGSTFQTYVMGWYRQAPGKERELVAAISSGGSTNYADSVKGRFTISRDNAKNTVYLQMISLKPEDTAVYYCAKRWPYFRRGKDGYWGQGTQVTVSS”: the “polyreactivity (PSR sort gate)” value was “low polyreactivity”.
For “QVQLVESGGGLVQAGGSLRLSCAASGSTFQVNAMGWYRQAPGKERELVASISGGSSTNYADSVKGRFTISRDNAKNTVYFQMNSLKPEDTAVYYCAADYLSGLRVAYDYWGQGTQVTVSS”, the “polyreactivity (PSR sort gate)” value is “low polyreactivity”.
The entry for “QVQLVESGGGLVQAGGSLRLSCAASGSTFQVNAMGWYRQAPGQDRELVAAITYRTGRTYYADSVKGRCTISRDNAKNTGYLQMNSLKPEDTAVYYCAATAHSYYGVGMGYWGQGTQVTVSS” is “high polyreactivity”; for “QVQLVESGGGLVQAGGSLRLSCAASGSTFQVYAMGWYRQAPGKERELVAAIRYRDGNTYYADSVKGRFTISRDNAKNTVYLQMNSLKPEETAVYYCNARLYMPSGYRRSNGYESDYWGQGTQVTVSS” it is “high polyreactivity”.
As for “QVQLVESGGGLVQAGGSLRLSCAASGSTFQYYPMGWYRQAPGKERELVAAISYRGSTYYADSVKGRFTISRDNAKNTVYLQMNRLKPEDTSVYYCAKGGTTWYWSGYRSIYFRYDYWGQGTQVTVSS”, the “polyreactivity (PSR sort gate)” value is on record as “high polyreactivity”.
In the case of “QVQLVESGGGLVQAGGSLRLSCAASGSTFRANAMGWYRQAPGKERELVAAIRGTGSTYYADSVKGRFTISRDNAKNTVYLQMNSLKPEDTAVYYCAARPGYLYSKYNYWGQGTQVTVSS”, the “polyreactivity (PSR sort gate)” value is given as “high polyreactivity”.
Turning to “QVQLVESGGGLVQAGGSLRLSCAASGSTFRAYAMGWYRQAPGKERELVAAISSGGSTYYADSVKGRFTISRDNAKITVYLQMNCLKPEDTAVYHCAKGWYYVSPYGYRKGVYYWGQGTKVTVSS”, the “polyreactivity (PSR sort gate)” value is listed as “high polyreactivity”.
For the sequence “QVQLVESGGGLVQAGGSLRLSCAASGSTFRDNAMGWYRQAPGKERELVAAISRRGGNTYYADSVKGRFTISRDNAKNTVYLQMNSLKPEDTAVYYCAAEVKTSYSYTHDGYWGQGTQVTVSS”, the “polyreactivity (PSR sort gate)” value is on record as “high polyreactivity”.
For “QVQLVESGGGLVQAGGSLRLSCAASGSTFRDNAMGWYRQAPGKERELVAAITVIDGTTYYADSVKGRFTISRDYAKNTVYLQMNSLKPEDTAVYYCADDTIWYEYYYWGQGTQVTVSS”, the “polyreactivity (PSR sort gate)” value is reported as “low polyreactivity”.
Consider “QVQLVESGGGLVQAGGSLRLSCAASGSTFRENDMGWYRQAPGKERELVAALTFSGGSTYADSVKGRFTISRDNAKNTVYLQMNSLKPEDTAVYYCSADTLPAEFDYDYWGQGTQVTVSS”, for which the “polyreactivity (PSR sort gate)” value is recorded as “low polyreactivity”.
The entry for “QVQLVESGGGLVQAGGSLRLSCAASGSTFRFNAMGWYRQAPGKERELVAAITSTGSTYYADSVKGRFTISRDNAKNTVYLQMNSLKPEDTADYYCAATYPRYRATPRYYSWGQGTQVTVSS” is “high polyreactivity”; for “QVQLVESGGGLVQAGGSLRLSCAASGSTFRFNAMGWYRQAPGKERELVATISYSSDSTYYAYSVKVRFTISRDNAKNTVYLQMNSLKPEDTAVYYCAADSGYARFDYWGQGTQVTVSS” it is “high polyreactivity”; for “QVQLVESGGGLVQAGGSLRLSCAASGSTFRFYAMGSYRQAPGKERELVASISRSGGSTYYADSVKGRFTISRDNAKNTVYLQMNSLKPEDTAVYYCAARILYHMDWGQGTQVTVSS” it is “high polyreactivity”.
“QVQLVESGGGLVQAGGSLRLSCAASGSTFRFYAMGWYRQAPGKERELVAAINGSGGSTYYADSVKGRFTISRDIAKNSVYLQMNSLKPEDTAVYYCAVLYRYGYDYWGQGTQVTVSS”: the “polyreactivity (PSR sort gate)” value is “low polyreactivity”.
In the case of “QVQLVESGGGLVQAGGSLRLSCAASGSTFRFYAMGWYRQAPGKERELVAAISKSGGITYYADSVKGRFTISRDNAKNTVYLQMNSLKPEDTAVYSCATVGLLSNFYARFNYWGQGTQVTVSS”, the “polyreactivity (PSR sort gate)” value is “high polyreactivity”.
Consider “QVQLVESGGGLVQAGGSLRLSCAASGSTFRFYAMGWYRQAPGKERELVAAISSRAGSTYYADSVKGRFTISRDNAKNTVYLQMNSLKPEDTAVYYCNARTYSYRGYNYWGQGTQVTVSS”, for which the “polyreactivity (PSR sort gate)” value is given as “high polyreactivity”.
Turning to “QVQLVESGGGLVQAGGSLRLSCAASGSTFRGNAMGWYRQAPGKERELVAAISESGTDTYYADSVKGRFTISRDNAKKTVYLLMNSLKPEDTAVYYCAKDYSGTYYAQYNYWGQGTQVTVSS”, the “polyreactivity (PSR sort gate)” value was “low polyreactivity”.
For “QVQLVESGGGLVQAGGSLRLSCAASGSTFRGYAKGWNRQAPGKERELVAAISSRGARTHYADSVKGRFTISRDNAKNTVYLQMNSLKPEDTAVYYCAVGSPYYDGMDYWGQGTQVTVSS”, the “polyreactivity (PSR sort gate)” value is “low polyreactivity”.
“QVQLVESGGGLVQAGGSLRLSCAASGSTFRGYAMGRYRQAPGKERELVAAITRNGGSTYYADSVKGRFTISRDNAKNTVYLQMNSLKPEDTAVFYCAAAKRRTVGVKYTFDYWGQGTQVTVSS”: the “polyreactivity (PSR sort gate)” value is given as “high polyreactivity”.
Turning to “QVQLVESGGGLVQAGGSLRLSCAASGSTFRGYAMGWNRPAPGKETELVAGITKRGGSTYYADSVKGRFTISRDNAKNTVYLQMNSLKPEDTAVYYCAAGKHRQAYEHDYWGQGTQVTVSS”, the “polyreactivity (PSR sort gate)” value was “high polyreactivity”.
For the sequence “QVQLVESGGGLVQAGGSLRLSCAASGSTFRGYAMGWYRHAPGKERELVAAITYISDSTYYADSVKGRFTISRDNAKNTVYLQMNSLKPEDTAVYYCIAYYDGDWRYTSQETGDHWGQGTQVTVSS”, the “polyreactivity (PSR sort gate)” value is reported as “low polyreactivity”.
Consider “QVQLVESGGGLVQAGGSLRLSCAASGSTFRGYAMGWYRQAPGKDRELVATISGSDGTTYYADSVQGRFTISRDNAKKTVYLQMNSLKPEDTAVYFCAAGETFEMYYWGQGTQVTVSS”, for which the “polyreactivity (PSR sort gate)” value was “low polyreactivity”.
On to “QVQLVESGGGLVQAGGSLRLSCAASGSTFRGYAMGWYRQAPGKEREFVAAISRRGGTTYYADSVKGRFTISRDNAKNTVYLQMNSLKPEDTAVYYCNKVYYQHYLAFDYWGQGTQVTVSS”, for which the “polyreactivity (PSR sort gate)” value was “high polyreactivity”.
For the sequence “QVQLVESGGGLVQAGGSLRLSCAASGSTFRGYAMGWYRQAPGKEREIVAAISRRGGTTYYADSVKGRFTISRDNAKNTVYLQMNSLKPEDTAVYYCNKVYYQHYLAFDYWGQGTQVTVSS”, the “polyreactivity (PSR sort gate)” value was “high polyreactivity”.
